The record followed here is patent US20240368281A1 (INNATE PHARMA, published 2024).

In general, Kd refers to the equilibrium constant for the complex coming apart. Low values mean tighter binding, high ones weaker binding. The term koff denotes the first-order rate constant of dissociation. Low values mean slow dissociation, high ones fast dissociation. For orientation: kon means the second-order rate constant of association. The low end stands for slower complex formation, the high end for faster complex formation. For orientation: EC50 means the midpoint of the concentration-response curve.

Test [1] concerns the target T1, CD94/NKG2A on the cell surface (human, UniProt Q13241 1-179).
T1 construct: whole, on cells; also called Ba/F3-CD94/NKG2A; NKG2A+ cells
In words: flow cytometry, titration on purified human NK cells; four-parameter fit, median of 5 donors. Here is the method:
Purified NK cells were prepared from frozen PBMC: Human NK purification with Stem Sep system, and cultured O/N in complete medium supplemented with 10 IU/ml recombinant IL-2. PBMC were prepared from collected blood. Blood was qualified for transfusion, donors were thus anonymous and supposedly healthy. PBMC were prepared, aliquoted and stored in nitrogen tanks prior to the study.
Calculations of Kd for receptor saturation and EC₅₀ for CD107 mobilization were performed in GraphPad Prism software using a non-linear regression fit with four parameters.

Test [2] concerns the target T2, single-chain NKG2A-CD94-mFc construct (human, UniProt Q13241 32-179, limits assumed).
T2 construct: The order here follows the printed name only; also called recombinant NKG2A; not shown: mouse Fc (mFc)
Briefly: SPR, Biacore T100; antigen amine-coupled to a CM5 chip, antibody injected at 0.157-2.5 nM. Here is the method:
Heavy chain frameworks included “VH1” based on VH1_18/JH6; “VH5” based on VH5_a; “VH6” based on VH5_51; “VH7” based on VH1_f; and “VH8” based on VH1_46, all with a JH6 J-segment. The antigen-binding properties were analyzed on a Biacore T100 (Biacore AB, Uppsala, Sweden). The antigen was in the form of a single-chain NKG2A-CD94-mFc construct was covalently immobilized on the sensor CM5 chip (Biacore AB, Uppsala, Sweden) via amine groups using 1-ethyl-3-(3-dimethylaminopropyl) carbodiimide hydrochloride (EDC) and N-hydroxysuccinimide (NHS). The immobilization level was targeted at 300 RU. Z270 antibody variants were diluted to a concentration series (0.157, 0.313, 0.625, 1.25, 2.5 nM) in the running buffer HBS-EP (10 mM HEPES pH 7.4, 150 mM NaCl, 3 mM EDTA, 0.005% (v/v) Tween-20). All the samples were then injected over the immobilized antigen for 2 min at the flow rate of 40 ul/min. Subsequently, the running buffer was injected for 3 min at 40 ul/min for antibody dissociation analysis. After each run, the regeneration buffer (10 mM NaOH, 500 mM NaCl) was injected (30 seconds, 10 ul/min) to completely strip the remaining antibodies off the antigen. Data were evaluated with Biacore T100 evaluation software.
A general note: SPR reads the build-up and loss of mass on a sensor chip optically.

Test [3] has as its target T1, CD94/NKG2A on the cell surface. In words: cell-based or functional assay.
The target is the same in test [4]. In words: flow cytometry (MESF), titration in human whole blood, gated on NKG2A+ lymphocytes. From the text: The affinity and total number of receptors may impact both pharmacokinetics (PK) and pharmacodynamics (PD) of the mAb in humans. […] Human whole blood was collected from each donor and processed immediately.
(In flow cytometry, cells or beads pass a laser one at a time.)

T1 sequence (chain, as listed by the source limits assumed, chain 1 of 2): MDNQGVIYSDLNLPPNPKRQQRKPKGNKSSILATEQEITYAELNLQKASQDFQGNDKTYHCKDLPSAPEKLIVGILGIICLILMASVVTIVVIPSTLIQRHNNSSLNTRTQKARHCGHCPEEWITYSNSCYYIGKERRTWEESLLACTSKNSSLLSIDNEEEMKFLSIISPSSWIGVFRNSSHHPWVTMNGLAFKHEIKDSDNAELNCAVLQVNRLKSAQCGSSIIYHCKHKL
T1 sequence (Q13241 whole entry, chain 2 of 2): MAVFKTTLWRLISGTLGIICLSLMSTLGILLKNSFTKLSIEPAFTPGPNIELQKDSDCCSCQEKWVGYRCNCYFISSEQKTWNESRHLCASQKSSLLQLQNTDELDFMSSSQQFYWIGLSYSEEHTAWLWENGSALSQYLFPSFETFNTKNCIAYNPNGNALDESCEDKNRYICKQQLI
T1 sequence (chain, as listed by the source limits assumed, chain 1 of 2): as the sequence (chain, as listed by the source limits assumed, chain 1 of 2) above
T1 sequence (Q13241 whole entry, chain 2 of 2): as the sequence (Q13241 whole entry, chain 2 of 2) above
T2 sequence (Q13241 other isoform, or with tags, fused parts or gaps limits assumed): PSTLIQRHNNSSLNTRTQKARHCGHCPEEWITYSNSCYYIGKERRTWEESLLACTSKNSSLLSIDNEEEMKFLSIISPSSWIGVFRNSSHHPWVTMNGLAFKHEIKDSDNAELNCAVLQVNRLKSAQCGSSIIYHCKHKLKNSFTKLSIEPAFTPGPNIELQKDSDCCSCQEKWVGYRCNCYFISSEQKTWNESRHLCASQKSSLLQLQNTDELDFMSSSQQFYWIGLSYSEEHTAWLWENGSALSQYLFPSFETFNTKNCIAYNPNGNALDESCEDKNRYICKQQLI

B1: humZ270VL1/VH1 (antibody, human IgG4 S228P, kappa, V domains shown)
VH: QVQLVQSGAEVKKPGASVKVSCKASGYTFTSYWMNWVRQAPGQGLEWMGRIDPYDSETHYAQKLQGRVTMTTDTSTSTAYMELRSLRSDDTAVYYCARGGYDFDVGTLYWFFDVWGQGTTVTVSS
VL: DIQMTQSPSSLSASVGDRVTITCRASENIYSYLAWYQQKPGKAPKLLIYNAKTLAEGVPSRFSGSGSGTDFTLTISSLQPEDFATYYCQHHYGTPRTFGGGTKVEIKR
notes: also called humanized Z270 VH1; humZ270 VH1
The molecule B1 yielded a Kd in test [1] of 5 ng/mL. In test [2], this molecule gave a dissociation constant Kd of 66.5 pM, a koff of 0.000498 s⁻¹ and an on-rate constant (kon) of 7.49e+06 M⁻¹ s⁻¹. Also, in test [3], the “EC50 concentration in the CD107 mobilization assay (purified NK cells against autologous SEB blasts)” value was about 400 ng/ml, the “EC50 for CD107 mobilization on K562-HLA-E transfectants” value came to 4100 ng/mL and the “median EC50 for CD107 mobilization (autologous SEB blasts)” value turned out to be 0.4 µg/ml. In test [4], the EC50 was about 4 ng/mL, the “KD for full receptor occupancy (the EC100)” value was about 100 ng/mL and the Kd is about 4 ng/mL.
